We go through 2 molecules from paper PMC7519114.

The target of test [1] is ACKR3 of primary mouse astrocytes (mouse (endogenous in primary astrocytes)) (UniProt P56485).
The target is the same in test [2]. This is another data set of the same source.

UniProt P56485, sequence (P56485 whole entry): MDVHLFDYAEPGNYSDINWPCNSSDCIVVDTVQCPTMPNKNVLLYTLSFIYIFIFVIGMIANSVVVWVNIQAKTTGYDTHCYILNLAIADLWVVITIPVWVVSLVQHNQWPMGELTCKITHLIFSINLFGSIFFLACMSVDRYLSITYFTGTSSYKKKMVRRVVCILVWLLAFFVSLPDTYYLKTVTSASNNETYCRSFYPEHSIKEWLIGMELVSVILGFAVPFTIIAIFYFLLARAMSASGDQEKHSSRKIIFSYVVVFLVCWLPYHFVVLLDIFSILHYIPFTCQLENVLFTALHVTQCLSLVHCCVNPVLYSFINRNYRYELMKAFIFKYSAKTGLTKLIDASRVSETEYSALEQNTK

Turning to “Human/Feline/Rhesus Macaque CXCL12 (from UniProt P48061 22-93) (ligand)”, in test [1], the junctional current (Ij) magnitude in astrocyte cell pairs (double patch-clamp), after bath-application of CXCL12 was 56.5%. In addition, in test [2], the inhibition of forskolin-induced cAMP production in astrocytes, CXCL12 (10 nM) is 40.8 % inhibition and the inhibition of forskolin-induced cAMP production in astrocytes, CXCL12 after pre-treatment with the CXCR4 antagonist AMD3100 (1 μM, 30 min) was determined as 44.9%.

B1: Recombinant mouse CXCL11 (ligand)
chain: FLMFKQGRCLCIGPGMKAVKMAEIEKASVIYPSNGCDKVEVIVTMKAHKRQRCLDPRSKQARLIMQAIEKKNFLRRQNM
In test [1], B1 showed a junctional current (Ij) magnitude in astrocyte cell pairs (double patch-clamp), after bath-application of CXCL11 of 52%.
